In assay [1] the target is GST-L3 (UniProt P39023 1-403). As to the kind of experiment: pull-down.
Assay [2] deals with GST-L4 (UniProt P36578 1-427). As to the kind of experiment: pull-down.

Residue numbers refer to the chain shown, from its start. Names may count otherwise.

B1: His-G5(1–739) W14A (domain or fragment)
chain: MGQEPRTLPPSPNAYCARCSDAVPGGLFGFAARTSVFLVRVGPGAGESPGTPPFRVIGELVGHTERVSGFTFSHHPGQYNLCATSSDDGTVKIWDVETKTVVTEHALHQHTISTLHWSPRVKDLIVSGDEKGVVFCYWFNRNDSQHLFIEPRTIFCLTCSPHHEDLVAIGYKDGIVVIIDISKKGEVIHRLRGHDDEIHSIAWCPLPGEDCLSINQEETSEEAEITNGNAVAQAPVTKGCYLATGSKDQTIRIWSCSRGRGVMILKLPFLKRRGGGIDPTVKERLWLTLHWPSNQPTQLVSSCFGGELLQWDLTQSWRRKYTLFSASSEGQNHSRIVFNLCPLQTEDDKQLLLSTSMDRDVKCWDIATLECSWTLPSLGGFAYSLAFSSVDIGSLAIGVGDGMIRVWNTLSIKNNYDVKNFWQGVKSKVTALCWHPTKEGCLAFGTDDGKVGLYDTYSNKPPQISSTYHKKTVYTLAWGPPVPPMSLGGEGDRPSLALYSCGGEGIVLQHNPWKLSGEAFDINKLIRDTNSIKYKLPVHTEISWKADGKIMALGNEDGSIEIFQIPNLKLICTIQQHHKLVNTISWHHEHGSQPELSYLMASGSNNAVIYVHNLKTVIESSPESPVTITEPYRTLSGHTAKITSVAWSPHHDGRLVSASYDGTAQVWDALREEPLCNFRGHRGRLLCVAWSPLDPDCIYSGADDFCVHKWLTSMQDHSRPPQGKKSIELEKKRLSQPKA
Regarding B1, the binding result in assay [1] and in assay [2] was “binds” throughout.

B2: His-G5(1–739) Y15A (domain or fragment)
chain: B1 chain with A14W, Y15A
B2: the binding result in assay [1] and in assay [2] was “binds” each time.

The values above are taken from publication PMC5041490 (Nucleic Acids Research, 2016).
